Test results taken from patent EP4350345A2.

Key:
[1] = target: monoclonal antibody 21-4-3; experiment: SPR, 21-4-3 captured via anti-mouse IgG, 500 nM
[2] = target: purified interference factor(s) from serum of Donor B; experiment: SPR, interference factor on CM5 chip
[3] = target: purified interference factor(s) from serum of Donor A; experiment: SPR, interference factor on CM5 chip
[4] = target: purified interference factor(s) from serum of Donor C; experiment: SPR, interference factor on CM5 chip

monoclonal antibody 21-4-3, sequence (VH, as listed by the source, chain 1 of 2): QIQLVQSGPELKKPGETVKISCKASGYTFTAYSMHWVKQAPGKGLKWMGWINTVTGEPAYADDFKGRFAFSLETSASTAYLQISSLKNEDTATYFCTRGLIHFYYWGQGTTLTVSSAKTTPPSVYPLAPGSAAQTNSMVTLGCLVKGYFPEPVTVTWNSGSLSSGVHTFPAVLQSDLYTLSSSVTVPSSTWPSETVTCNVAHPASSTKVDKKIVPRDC
monoclonal antibody 21-4-3, sequence (VL, as listed by the source, chain 2 of 2): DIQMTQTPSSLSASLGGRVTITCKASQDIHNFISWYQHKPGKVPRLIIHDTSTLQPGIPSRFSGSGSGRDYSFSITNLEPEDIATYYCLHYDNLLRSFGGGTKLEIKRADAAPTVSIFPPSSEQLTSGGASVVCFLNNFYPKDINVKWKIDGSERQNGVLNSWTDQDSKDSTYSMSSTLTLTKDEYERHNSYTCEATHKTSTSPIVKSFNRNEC

| Binder | binding as % of Reference Sequence (=100%) [1] | binding as % of Reference Sequence (=100%) [2] | binding as % of Reference Sequence (=100%) [3] | binding as % of Reference Sequence (=100%) [4] |
| --- | --- | --- | --- | --- |
| Nanobody or Nanobody construct of SEQ ID NO: 43 (VHH) DVQLVESGGGLVQPGGSLRLSCAASGFILDYYAIGWFRQAPGKEREGVLCIDASDDITYYADSVKGRFTISRDNSKNTVYLQMNSLRPEDTAVYYCATPIGLSSSCLLEYDYDYWGQGTLVTVSSGGGGSGGGSEVQLLESGGGLVQPGGSLRLSCAASGFTFRSFGMSWVRQAPGKGPEWVSSISGSGSDTLYADSVKGRFTISRDNSKNTLYLQMNSLRPEDTAVYYCTIGGSLSRSSQGTLVTVSSA | 3% | 20% | 3% |  |
| Nanobody or Nanobody construct of SEQ ID NO: 38 (VHH) EVQLVESGGGLVQPGGSLRLSCAASGFTFSSYAMSWVRQAPGKGLEWVSGIKSSGDSTRYAGSVKGRFTISRDNAKNTLYLQMNSLRPEDTAVYYCAKSRVSRTGLYTYDNRGQGTLVTVSSGGGGSGGGGSGGGGSGGGGSEVQLVESGGGLVQPGGSLRLSCAASGRTFNNYAMGWFRQAPGKEREFVAAITRSGVRSGVSAIYGDSVKDRFTISRDNAKNTLYLQMNSLRPEDTAVYYCAASAIGSGALRRFEYDYSGQGTLVTVSSA |  | 25% | 9% | 7% |
| Nanobody or Nanobody construct of SEQ ID NO: 45 (VHH) VHH: EVQLVESGGGLVQAGGSLRLSCAASRSIGRLDRMGWYRHRTGEPRELVATITGGSSINYGDFVKGRFTISIDNAKNTVYLQMNNLKPEDTAVYYCNFNKYVTSRDTWGQGTQVTVSS | 22% |  | 0% |  |
| Nanobody or Nanobody construct of SEQ ID NO: 80 (VHH) VHH: EVQLVESGGGLVQPGGSLRLSCAASRSIGRLDRMGWYRHRPGEPRELVATITGGSSINYGDSVKGRFTISIDNSKNTVYLQMNSLRPEDTAVYYCNFNKYVTSRDTWGQGTLVQVGG | 51% | 5% | 65% | 58% |
| Nanobody or Nanobody construct of SEQ ID NO: 81 (VHH) VHH: EVQLVESGGGVVQPGGSLRLSCAASRSIGRLDRMGWYRHRPGEPRELVATITGGSSINYGDSVKGRFTISIDNSKNTVYLQMNSLRPEDTAVYYCNFNKYVTSRDTWGQGTLVTVSS | 75% | 50% | 94% | 89% |
| Nanobody or Nanobody construct of SEQ ID NO: 87 (VHH) VHH: EVQLVESGGGSVQPGGSLRLSCAASRSIGRLDRMGWYRHRPGEPRELVATITGGSSINYGDSVKGRFTISIDNSKNTVYLQMNSLRPEDTAVYYCNFNKYVTSRDTWGQGTLVTVGG | 41% | 5% | 51% | 39% |
| Nanobody or Nanobody construct of SEQ ID NO: 66 (VHH) VHH: EVQLVESGGGSVQPGGSLRLSCAASRSIGRLDRMGWYRHRPGEPRELVATITGGSSINYGDSVKGRFTISIDNSKNTVYLQMNSLRPEDTAVYYCNFNKYVTSRDTWGQGTLVTVSS | 48% | 29% | 81% | 84% |
| Nanobody or Nanobody construct of SEQ ID NO: 82 (VHH) VHH: EVQLVESGGGLVQPGGSLRLSCAASRSIGRLDRMGWYRHRPGEPRELVATITGGSSINYGDSVKGRFTISIDNSKNTVYLQMNSLRAEDTAVYYCNFNKYVTSRDTWGQGTLVTVSS | 56% | 80% | 96% | 100% |
| Nanobody or Nanobody construct of SEQ ID NO: 68 (VHH) VHH: EVQLVESGGGLVQAGGSLRLSCAASRSIGRLDRMGWYRHRPGEPRELVATITGGSSINYGDSVKGRFTISIDNSKNTVYLQMNSLRPEDTAVYYCNFNKYVTSRDTWGQGTQVTVSS | 26% | 115% | 38% | 49% |
| Nanobody or Nanobody construct of SEQ ID NO: 69 (VHH) VHH: EVQLVESGGGLVQPGGSLRLSCAASRSIGRLDRMGWYRHRPGEPRELVATITGGSSINYGDSVKGRFTISIDNSKNTVYLQMNSLRPEDTAVYYCNFNKYVTSRDTWGQGTQVTVSS | 106% | 120% | 80% | 84% |
| Nanobody or Nanobody construct of SEQ ID NO: 85 (VHH) VHH: EVQLVESGGGSVQPGGSLRLSCAASRSIGRLDRMGWYRHRPGEPRELVATITGGSSINYGDSVKGRFTISIDNSKNTVYLQMNSLRPEDTAVYYCNFNKYVTSRDTWGQGTLVQVGG | 32% | 5% | 46% | 42% |

Further lines, results first:

| binding as % of Reference Sequence (=100%) [1] | binding as % of Reference Sequence (=100%) [2] | binding as % of Reference Sequence (=100%) [3] | binding as % of Reference Sequence (=100%) [4] | Binder |
| --- | --- | --- | --- | --- |
| 4% |  | 1% |  | Nanobody or Nanobody construct of SEQ ID NO: 47 (VHH) VHH: EVQLVESGGGLVQPGGSLRLSCAASGSVFKINVMAWYRQAPGKGRELVAGIISGGSTSYADSVKGRFTISRDNAKNTLYLQMNSLRPEDTAVYYCAFITTESDYDLGRRYWGQGTLVTVSS |
| 4% |  | 0% |  | Nanobody or Nanobody construct of SEQ ID NO: 49 (VHH) VHH: EVQLLESGGGLVQPGGSLRLSCAASGLPFSTKSMGWFRQAPGKGREFVSRISPGGTSRYYGDFVKGRFTISRDNSKNTLYLQMNSLRAEDTAVYYCASGERSTYIGSNYYRTNEYDYWGQGTLVTVSS |
|  | 4% | 1% |  | Nanobody or Nanobody construct of SEQ ID NO: 42 (VHH) EVQLVESGGGLVQPGGSLRLSCAASGRTFSYNPMGWFRQAPGKGRELVAAISRTGGSTYYPDSVEGRFTISRDNAKRMVYLQMNSLRAEDTAVYYCAAAGVRAEDGRVRTLPSEYTFWGQGTQVTVSSAAAEVQLVESGGGLVQPGGSLRLSCAASGRTFSYNPMGWFRQAPGKGRELVAAISRTGGSTYYPDSVEGRFTISRDNAKRMVYLQMNSLRAEDTAVYYCAAAGVRAEDGRVRTLPSEYTFWGQGTQVTVSSA |
| 1% | 96% | 96% | 100% | Nanobody or Nanobody construct of SEQ ID NO: 78 (VHH) VHH: EVQLVESGGGLVRPGGSLRLSCAASRSIGRLDRMGWYRHRPGEPRELVATITGGSSINYGDSVKGRFTISIDNSKNTVYLQMNSLRPEDTAVYYCNFNKYVTSRDTWGQGTLVTVSS |
| 23% | 121% | 73% | 64% | Nanobody or Nanobody construct of SEQ ID NO: 65 (VHH) VHH: EVQLVESGGGLVQAGGSLRLSCAASRSIGRLDRMGWYRHRPGEPRELVATITGGSSINYGDSVKGRFTISIDNSKNTVYLQMNSLRPEDTAVYYCNFNKYVTSRDTWGQGTLVTVSS |
| 106% | 105% | 90% | 98% | Nanobody or Nanobody construct of SEQ ID NO: 70 (VHH) VHH: EVQLVESGGGLVQPGGSLRLSCAASRSIGRLDRMGWYRHRPGEPRELVATITGGSSINYGDSVKGRFTISIDNSKNTVYLQMNSLRPEDTAVYYCNFNKYVTSRDTWGQGTLVQVSS |
| 44% | 105% | 88% | 87% | Nanobody or Nanobody construct of SEQ ID NO: 71 (VHH) VHH: EVQLVESGGGLVQPGGSLRLSCAASRSIGRLDRMGWYRHRPGEPRELVATITGGSSINYGDSVKGRFTISIDNSKNTVYLQMNSLRPEDTAVYYCNFNKYVTSRDTWGQGTLVTVSG |
| 79% | 73% | 56% | 61% | Nanobody or Nanobody construct of SEQ ID NO: 83 (VHH) VHH: EVQLVESGGGLVQPGGSLRLSCAASRSIGRLDRMGWYRHRPGEPRELVATITGGSSINYGDSVKGRFTISIDNSKNTVYLQMNSLRPEDAAVYYCNFNKYVTSRDTWGQGTLVTVSS |
| 101% | 117% | 102% | 96% | Nanobody or Nanobody construct of SEQ ID NO: 67 (VHH) VHH: EVQLVESGGGLVQPGGSLRLSCAASRSIGRLDRMGWYRHRPGEPRELVATITGGSSINYGDSVKGRFTISIDNSKNTVYLQMNSLKPEDTAVYYCNFNKYVTSRDTWGQGTLVTVSS |
| 2% | 5% | 14% | 17% | Nanobody or Nanobody construct of SEQ ID NO: 89 (VHH) VHH: EVQLVESGGGSVQAGGSLRLSCAASRSIGRLDRMGWYRHRPGEPRELVATITGGSSINYGDSVKGRFTISIDNSKNTVYLQMNSLRPEDTAVYYCNFNKYVTSRDTWGQGTLVQVGG |
| 91% | 50% | 84% | 83% | Nanobody or Nanobody construct of SEQ ID NO: 84 (VHH) VHH: EVQLVESGGGLVQPGGSLRLSCAASRSIGRLDRMGWYRHRPGEPRELVATITGGSSINYGDSVKGRFTISIDNSKNTVYLQMNSLRPEDTAVYYCNFNKYVTSRDTWGQGTLVTVGS |
| 3% |  | 0% |  | Nanobody or Nanobody construct of SEQ ID NO: 48 (VHH) VHH: EVQLVESGGGLVQPGGSLRLSCIASGLPFSTKSMGWFRQAPGKEREFVARISPGGTSRYYGDFVKGRFAISRDNAKNTTWLQMNSLKAEDTAVYYCASGERSTYIGSNYYRTNEYDYWGTGTQVTVSS |
